Measured values from the RNAGym collection of RNA variant scans (doi:10.1073/pnas.2313332121).
Fewer inactive variants are shown than the library holds.

B1: TPR 5TU (parent)
chain: GGAUCUUCUCGAUCUAACAAAAAAGACAAAUCUGCCACAAAGCUUGAGAGCAUCUUCGGAUGCAGAGGCGGCAGCCUUCGGUGGCGCGAUAGCGCCAACGUUCUCAACUAUGACACGCAAAACGCGUGCUCCGUUGAAUGGAGUUUAUCAUG

Variants of: B1
Test: polymerase ribozyme fitness, log enrichment relative to wild type (log ratio); higher = more active; in vitro selection for triplet polymerase activity
In short: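 A single round of triplicate in vitro selection, including frozen incubation at −7 °C, was applied to PCR-built, transcribed mutant libraries of each subunit of a heterodimeric triplet polymerase ribozyme. Illumina sequencing of input and output libraries retained genotypes with ≥10 input reads and ≥1 read per output. Fitness is the base-2 logarithm of genotype enrichment divided by wild-type enrichment, from inverse-variance-weighted replicate averages.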

| Variant | polymerase ribozyme fitness (log ratio) |
| --- | --- |
| GGAUCUUCUCGAUCUAACAAAAAAGACAAAUCUGCCACAAAGCUUGAGAGCAUCUUCGGAAGCAGAGGCGGCAGCCUUCGGUGGCGCGAUCGCGCCAACCUUCUCAACUAUGACACGCAAAACGCGUGCUCCGUUGAAUGGUGUUUAUCAUG [U61A A91C G100C A142U] | ≤ -4.2 |
| GGAUCUUCUCGAUCUAACAAAAAAGACAAAUCUGCCACAAAGCUUGAGAGCAUCUUCGGUAGCAGAGGGGGCAGCCUUCGGUGGCGCGAUAGCGCUAACGUUCUCAACUAUGACACGCAAAACGCGUGCUCCGUUGAAUGGAGUUUAUCAUG [A60U U61A C69G C96U] | ≤ -4.2 |
| GGAUCUUCUCGAUCUAACAAAAAAGACAAAUCUGCCACAAAGCUUGAGAGCAUCUUCGGAAGCAGAGGCGGCAGCCUUCGGUGGCGCGAUAGCGCCCACGUUCUCAACUAUGACACGCAAAACGCGUGCUCCGUUGAAUGGAGUUUAUCAUG [U61A A97C] | -1.48 |
| GGAUCUUCUCGAUCUAACAAAAAAGACAAAUCUGCCACAAAGCUUGAGAGCAUCUUCGGAAGCAGAGGCGGCAGCCUUCGGUGGCGUGAUAACGCCAACGUUCUCGACUAUGACACGCAAAUCGCGUGCUCCGUUGAAUGGAGUUUAUCAUG [U61A C87U G92A A106G A122U] | -2.84 |
| GGAUCUUCUCGAUCUAACAAAAAAGACAAAUCUGCCACAAAGCUUGAGAGCAUCUUCGGAAGCAGAGGCGGCAGUCUUCGGUGGCGCGAUAGCGCCAACGUUCUCAACUAUGACACGCAAAACGAGUACUCCGUUGAAUGGUGUUUGUCAUG [U61A C75U C125A G128A A142U A147G] | ≤ -4.2 |
| GGAUCUUCUCGAUCUAACAAAAAAGACAAAUCUGCCACAAAGCUUGAGAGCAUCUUCGGAAGCAGAGGCGGCAGCCUUCGGUGGUGAGAUAGCGCCAACGUUCUCAACUAUGACACGGAAAACGCGUGCUCCGAUGAAUGGAGUUUAUCAUG [U61A C85U C87A C118G U134A] | ≤ -4.2 |
| GGAUCUUCUCGAUCUAACAAAAAAGACAAAUCUGCCACAAAGCUUGAGAGCAUCUUCGGAAGCAGAGGCGGCAGCCUUCGGUGGAGCGAUAGCGCCAACGUUCUCAACUAUGACACGCAAAACGCGUGCUCCGUUGAAUGCAGUUUAUCAUG [U61A C85A G141C] | -2.36 |
| GGAUCUUCUCGAUCUAACAAAAAAGACAAAUCUGCCACAAAGCUUGAGAGCAUCUUCGGUUGCAGAGGCGGCAGCCUUCGGUGGCGCGAUAGCGCCAACGUUCUCAACUAUGACACGCAAAACGCGUGCUCCGUUGAAAGGAGUUUAUCUUG [A60U U139A A150U] | ≤ -4.2 |
| GGAUCUUCUCGAUCUAACAAAAAAGACAAAUCUGCCACAAAGCUUGAGAGCAUCUUCGGAAGCAGAGGCGGCAGCCUUCGGUGGGGCGAUAGCGCCAACGUUCUCAACUAUGACACGCAAAACGCGUGCUCCGUUGAAUGGAGUUUAUCAUG [U61A C85G] | ≤ -4.2 |
| GGAUCUUCUCGAUCUAACAAAAAAGACAAAUCUGCCACAAAGCUUGAGAGCAUCUUCGGAAGCAGAGGCGGCAGCCUUCGGUGGAGCGAUAGCGCCAACGUUCUCAACUAUGACACGCAAAACGCGUGCUCCGUUGAAUGGAGUUUAUCAUG [U61A C85A] | -3.12 |
| GGAUCUUCUCGAUCUAACAAAAAAGACAAAUCUGCCACAAAGCUUGAGAGCAUCUUCGGAAGCAGAGGCGGCAGCCUUCGGUGGUGCGAUAGCGCCAACGUUCUCAACUAUGACACGCAAAACGCGUGCUCCGUUGAAUGGAGUUUAUCAUG [U61A C85U] | -1.28 |
| GGAUCUUCUCGAUCUAACAAAAAAGACAAAUCUGCCACAAAGCUUGAGAGCAUCUUCGGAAGCCGAGGCGACAGCCUUCGGUGGCACGAUCGUGCCAACGUUCUCAACUAUGACACGGAAAACGCGUGCUCCGUUGAAUGGAGUUUAUCAUG [U61A A64C G71A G86A A91C C93U C118G] | ≤ -4.2 |
| GGAUCUUCUCGAUCUAACAAAAAAGACAAAUCUGCCACAAAGCUUGAGAGCAUCUUCGGAAGCGGAGGCGGCAGCCUUCGGUGGCGCGAUAGCGCCAACGUUCUCAACUAUGACACGCAAAACGCGUGCUCCGUUGAAUCGAGCUUAUCAUG [U61A A64G G140C U144C] | ≤ -4.2 |
| GGAUCUUCUCGAUCUAACAAAAAAGACAAAUCUGCCACAAAGCUUGAGAGCAUCUUCGGUAGCAGAGGCGGCAGCCUUCGGUGGCGCGAUAGCGCCAACGUUCUCAACUAUGACACGCAAAACGCGUGCUCCGUUGAAUGGCGUUUAUCAUG [A60U U61A A142C] | -3.49 |
| GGAUCUUCUCGAUCUAACAAAAAAGACAAAUCUGCCACAAAGCUUGAGAGCAUCUUCGGUUGCAGAGGCGGCAGCCUUCGGUGGCGCGAUAGCGCCAACGUUCUCAACUAUGACACGCAAAACGCGUGCGCCGUUGAAUGGACUUUAUCAUG [A60U U130G G143C] | ≤ -4.2 |
| GGAUCUUCUCGAUCUAACAAAAAAGACAAAUCUGCCACAAAGCUUGAGAGCAUCUUCGGAAGCAGAGGCGGCAGCCUUCGGUGGCGCGAUAGCGCCAACGUUCUCAACUAUGACACGCAAAACGCGUGCUCCGUUGCAUAGAGUUUAUCAUG [U61A A137C G140A] | -4.19 |
| GGAUCUUCUCGAUCUAACAAAAAAGACAAAUCUGCCACAAAGCUUGAGAGCAUCUUCGGAAGCAGAGGCGGCAGCCUUCGGUGGCGCGAUUGCGCCAACGUUCUCAACUAUGACACGCAAAACGCGUGCUCCGUUGAAUGGAGUUUAUCAUG [U61A A91U] | ≤ -4.2 |
| GGAUCUUCUCGAUCUAACAAAAAAGACAAAUCUGCCACAAAGCUUGAGAGCAUCUUCGGUUGCAGAGGCGGCAGCCUCCGGUGGCGCGAUUGCGCCAACGUUCUCAACUAUGACAAUCAAAACGCGUGCUCCGUUGAAUGGAGUUUAUCAUG [A60U U78C A91U C116A G117U] | ≤ -4.2 |
| GGAUCUUCUCGAUCUAACAAAAAAGACAAAUCUGCCACAAAGCUUGAGAGCAUCUUCGGAAGCAGAGGCGGCAGCCUUCGGUGGCGCGAUAGCGCCAACGUUCUCAACUAUGACACGCAAAACGCGUGCUCCGUUGAAUGGAGUUUUUCAUG [U61A A147U] | -0.329 |
